# From US20190352664A1, “COMPOSITIONS AND METHODS FOR CONTROLLING GENE EXPRESSION” (priority 2017, published 2019)
# Test system: Arabidopsis
# Assay: Ribo-seq and RNA-seq global translatome profiling (translational efficiency TE, mORF/uORF ribo-shift) upon elf18 treatment
# Assay type: in vivo
# Set-up: key to score (Ribo-shift): Up: ribo-shift up (i.e., increased mORF/uORF ratio); Down: ribo-shift down (i.e., decreased mORF/uORF ratio)
# Conditions: shift of mORF/uORF ratio, elf18 vs Mock; per uORF
row,Molecule,score (Ribo-shift)
1,"AT4G24750.1_1: uORF of AT4G24750.1; peptide SEQ ID NO: 26 (nucleic acid, listed as DNA, chemistry not fully specified) DNA: ATGAAGCCAAAACTATCCAATAACTCGAAATTGACTACTCTTTTCTTTTGTCTCTGTTGTTGA",Down

# Same assay, conditions: translational efficiency fold change, elf18 vs Mock; listed as shows 5′ UTR of the transcript
row,Molecule,score (TE change)
1,AT4G17840.1: 5′ UTR of transcript (nucleic acid) DNA: ATCAAAATCAATGATCAAGGTAACGTAGTCAAGTTCAATTACTCTTTGTCAAATTTAAGTGGTCTCTATTACTAAACTATACACAACCGTTAGATCAAATAATTCTCTACCATCCAACGGTCCAAAGTCTCCACTTCTATTTATTACAATAAAATGAGAAAATAAAAACGCGCGGTCACCGATTCTCTCTCGCTCTCTCTGTTACTAAATGAAGAAGAGAATCTCTCCGGCGAGATCACCGGCGTTATTCCGATAATTTCGCCTGAGAGTTGTCGCATGTTATAA,TEup (448 had increased TEfc)
2,AT4G34460.1: 5′ UTR of transcript; GTP binding protein beta 1 (nucleic acid) DNA: GACCCTCTTCTCTCTCTCTAGCTAGTCTCAGGTCAGAGAAGCCATCATCAACATTCAACAAGAGAGCCGTGTTTGTGTCTTGACTGATTCTTCTCTCAAGCTTTTTTAATCTCTCTCTCTTTTCCCACGTAATTCCCCCAAATCCATTCTTTCTAGGGTTCGATCTCCCTCTCTCAATCATGAACCTTCTTCTCTTCTAGACCCCACAAAGTTTCCCCCTTTTATTTGATCGGCGACGGAGAAGCCTAAGTCTGATCCCGGA,TEdown (389 genes displayed decreased TEfc (|z|≥1.5))
3,AT4G32800.1: 5′ UTR of transcript; Integrase-type DNA-binding superfamily protein (nucleic acid) DNA: ATTTCATAAATCATAGAGAGAGAGAGAGAGAGAGAGAGAGAGTTTGGAAACATTCCAAAACCAGAACTCGATATTATTTCACCAAAGAATGATAGAAACAAGAACTATCTTTTTATAAAACTCTTTACACCCCAAAAGAAAATGTCTCACTCGTTTTGCCTTATAATATTTCTTTCAACAACAACCCAAATCTACAAAAAATCCCAATAAAAAAAAACTTCAGTCTGTTTGACATTTTGTCGAACACTTGGACGGCATCACAAAAAGCTCTAAACTTTCTGACTACCA,TEdown (389 genes displayed decreased TEfc (|z|≥1.5))
4,AT4G18570.1: 5′ UTR of transcript; Tetratricopeptide repeat (TPR)-like superfamily protein (nucleic acid) DNA: ATTTTTATTACTCTCTCAAGTAGTCTCATCTTCTTCTTAATCCAAAGGCCCAAACTTTGAATCATCACTATCACTCTCTCTCTCTCTCTCTATCTCTCAAGAACTGCACGGACAACGACATGCTTTTAATTTCCATGCAAATCTCTCCTTTCTTCTCAAGTCATTTTTGAAAATCAATCAAAAAACTGAAACTTGGTGGAGCTTTTATCATTCACTCATCA,TEdown (389 genes displayed decreased TEfc (|z|≥1.5))
5,AT4G32660.1: 5′ UTR of transcript; Protein kinase superfamily protein (nucleic acid) DNA: AATTGGTGGATGTCGTCGCGGTTCGACCCCAAGGGATTTGGCCGGTAAAATTATTGGGAGTTGTCTTTCTCTTGCACTCTCTCTAGTTCCAAACCCTAGCAATTCCTCTGTTTTCACCATTTTCGGAGATTATCACCTTCTCCCCGATTCGCCGCCTTGTGATTACATCTACGTAAAGAGTTTCTGGTAGAAATTTTCCCTCTTTTAGCTGCAGATTGGCATCAGATTCCGTTCTGGATGTGTCGGTGATCGATTTTCCGCGTCGGTG,TEup (448 had increased TEfc)
6,AT4G23740.1: 5′ UTR of transcript; Leucine-rich repeat protein kinase family protein (nucleic acid) DNA: CTTTCACCCACTTTAATATGCCAAAAAATAAGAACAAAATTATATCCGTTGCTTGAAAATCACAAGCTCTTCTTAACTTCACAAGTGCTTCAATGGCGGTTCTTCACATTATCTTCACTGCGTAATTGAAGAAGTTGTTCTCTCTTCCTCTTAATTTCGAGTTGTGTTCTTAAAAAACTCCAGAGCTGATTCGATTCTCGAGAAGAAACTAAGCCGACAATAAAGTTCAGATCTGGAAAAAAGCGAGCTCCAGATTACAAAAAGAAACAGCTCGTTTTTTTCACTTTCAAAAAA,TEup (448 had increased TEfc)
7,AT4G26080.1: 5′ UTR of transcript; Protein phosphatase 2C family protein (nucleic acid) DNA: GAAGCAATTGTTGCATTAGCCTACCCATTTCCTCCTTCTTTCTCTCTTCTATCTGTGAACAAGGCACATTAGAACTCTTCTTTTCAACTTTTTTAGGTGTATATAGATGAATCTAGAAATAGTTTTATAGTTGGAAATTAATTGAAGAGAGAGAGATATTACTACACCAATCTTTTCAAGAGGTCCTAACGAATTACCCACAATCCAGGAAACCCTTATTGAAATTCAATTCATTTCTTTCTTTCTGTGTTTGTGATTTTCCCGGGAAATATTTTTGGGTATATGTCTCTCTGTTTTTGCTTTCCTTTTTCATAGGAGTCATGTGTTTCTTCTTGTCTTCCTAGCTTCTTCTAATAAAGTCCTTCTCTTGTGAAAATCTCTCGAATTTTCATTTTTGTTCCATTGGAGCTATCTTATAGATCACAACCAGAGAAAAAGATCAAATCTTTACCGTTA,TEdown (389 genes displayed decreased TEfc (|z|≥1.5))
8,"AT4G37925.1: 5′ UTR of transcript; subunit NDH-M of NAD(P)H:plastoquinone dehydrogenase complex (nucleic acid, listed as DNA, chemistry not fully specified, 5′ UTR of transcript; subunit NDH-M of NAD(P)H:plastoquinone dehydrogenase complex) DNA: ATGGTTCTGTAACCGGACAACATCTCAAAACTTGTTCTGTTTTTTTTTTTTCATTTCTTAGACAGAAAA",TEup (448 had increased TEfc)
9,AT1G19270.1: 5′ UTR of transcript; DA1 (nucleic acid) DNA: CGTGGGGAACGTTTTTTCCTGGAAGAAGAAGAAGAAGAGCTCAACAAGCTCAACGACCAAAAAACTTCGGACACGAAGACTTTTTAATTCATTTCTCCTCTTTTGTTTTTTTCGTTCCAAAATATTCGATACTCTCGATCTCTTCTTCGTGATCCTCATTAAATAAAAATACGATTTTTATTCTTTTTTTGTGAGTGCACCAAATTTTTTGACTTTGGATTAGCGTAGAATTCAAGCACATTCTGGGTTTATTCGTGTATGAGTAGACATTGATTTTGTCAAAGTTGCATTCTTTTATATAAAAAAAGTTTAATTTCCTTTTTTCTTTTCTTTTCTCTTTTTTTTTTTTTTCCCCCATGTTATAGATTCTTCCCCAAATTTTGAAGAAAGGAGAGAACTAAAGAGTCCTTTTTGAGATTCTTTTGCTGCTTCCCTTGCTTGATTAGATCATTTTTGTGATTCTGGATTTTGTGGGGGTTTCGTGAAGCTTATTGGGATCTTATCTGATTCAGGATTTTCTCAAGGCTGCATTGCCGTATGAGCAGATAGTTTTATTTAGGCATT,TEdown (389 genes displayed decreased TEfc (|z|≥1.5))
10,AT4G24750.1: 5′ UTR of transcript; Rhodanese/Cell cycle control phosphatase superfamily protein (nucleic acid) DNA: GAGTCTGGTTCGAAAAGACTGCTTCAATGAAGCCAAAACTATCCAATAACTCGAAATTGACTACTCTTTTCTTTTGTCTCTGTTGTTGATTCGCAAAGGCGAAGATTATCCATCTTCTCAGTTACTCCTACTGGAACCAAAAGCTCAGAACCTTAAAAC,TEdown (389 genes displayed decreased TEfc (|z|≥1.5))
